Measurements reported in US7304127.
Several values for one entry are separate records, joined by “and”; a condition that tells them apart may be missing. Equal values may be shown once.

B1: CCR5 49-66 (peptide)
peptide: MLVILILINCKRLKSMTD
modifications: not checked
B2: CXCR4 273-290 (peptide)
peptide: GCEFENTVHKWISITEAL
modifications: not checked
B3: STRL33 13-30 (peptide)
peptide: SSFNDSSQEEHQAFLQFS
modifications: not checked
B4: CXCR4 241-258 (peptide)
peptide: TVILILAFFACWLPYYIG
modifications: not checked
B5: CXCR4 313-330 (peptide)
peptide: AQHALTSVSRGSSLKILS
modifications: not checked
B6: CXCR4 333-350 (peptide)
peptide: KRGGHSSVSTESESSSFH
modifications: not checked
B7: CXCR4 181-198 (peptide)
peptide: DDRYICDRFYPNDLWVVV
modifications: not checked
B8: CXCR4 145-162 (peptide)
peptide: QRPRKLLAEKVVYVGVWI
modifications: not checked
B9: CCR5 73-90 (peptide)
peptide: AISDLFFLLTVPFWAHYA
modifications: not checked
B10: STRL33 9-26 (peptide)
peptide: DYGFSSFNDSSQEEHQAF
modifications: not checked
B11: CXCR4 173-190 (peptide)
peptide: IFANVSEADDRYICDRFY
modifications: not checked
B12: STRL33 1-18 (peptide)
peptide: MAEHDYHEDYGFSSFNDS
modifications: not checked
B13: CXCR4 161-178 (peptide)
peptide: WIPALLLTIPDFIFANVS
modifications: not checked
B14: CXCR4 317-334 (peptide)
peptide: LTSVSRGSSLKILSKGKR
modifications: not checked
B15: CCR5 69-86 (peptide)
peptide: LLNLAISDLFFLLTVPFW
modifications: not checked
B16: CXCR4 301-318 (peptide)
peptide: LYAFLGAKFKTSAQHALT
modifications: not checked
B17: CXCR4 329-346 (peptide)
peptide: LSKGKRGGHSSVSTESES
modifications: not checked
B18: STRL33 5-22 (peptide)
peptide: DYHEDYGFSSFNDSSQEE
modifications: not checked
B19: CXCR4 257-274 (peptide)
peptide: IGISIDSFILLEIIKQGC
modifications: not checked
B20: CXCR4 297-314 (peptide)
peptide: LNPILYAFLGAKFKTSAQ
modifications: not checked
B21: CXCR4 157-174 (peptide)
peptide: YVGVWIPALLLTIPDFIF
modifications: not checked
B22: CXCR4 277-294 (peptide)
peptide: ENTVHKWISITEALAFFH
modifications: not checked
B23: STRL33 37-54 (peptide)
peptide: MYLVVFVCGLVGNSLVLV
modifications: not checked
B24: CXCR4 249-266 (peptide)
peptide: FACWLPYYIGISIDSFIL
modifications: not checked
B25: STRL33 25-42 (peptide)
peptide: AFLQFSKVFLPCMYLVVF
modifications: not checked
B26: CXCR4 149-166 (peptide)
peptide: KLLAEKVVYVGVWIPALL
modifications: not checked
B27: CXCR4 153-170 (peptide)
peptide: EKVVYVGVWIPALLLTIP
modifications: not checked
B28: CXCR4 189-206 (peptide)
peptide: FYPNDLWVVVFQFQHIMV
modifications: not checked
B29: CCR5 57-74 (peptide)
peptide: NCKRLKSMTDIYLLNLAI
modifications: not checked
B30: CXCR4 261-278 (peptide)
peptide: IDSFILLEIIKQGCEFEN
modifications: not checked
B31: CXCR4 285-302 (peptide)
peptide: SITEALAFFHCCLNPILY
modifications: not checked
B32: CXCR4 289-306 (peptide)
peptide: ALAFFHCCLNPILYAFLG
modifications: not checked
B33: CXCR4 265-282 (peptide)
peptide: ILLEIIKQGCEFENTVHK
modifications: not checked
B34: CXCR4 321-338 (peptide)
peptide: SRGSSLKILSKGKRGGHS
modifications: not checked
B35: CXCR4 221-238 (peptide)
peptide: IIISKLSHSKGHQKRKAL
modifications: not checked
B36: CXCR4 213-230 (peptide)
peptide: IVILSCYCIIISKLSHSK
modifications: not checked
B37: CXCR4 305-322 (peptide)
peptide: LGAKFKTSAQHALTSVSR
modifications: not checked
B38: CXCR4 245-262 (peptide)
peptide: ILAFFACWLPYYIGISID
modifications: not checked
B39: CXCR4 217-234 (peptide)
peptide: SCYCIIISKLSHSKGHQK
modifications: not checked
B40: CXCR4 233-250 (peptide)
peptide: QKRKALKTTVILILAFFA
modifications: not checked
B41: CXCR4 281-298 (peptide)
peptide: HKWISITEALAFFHCCLN
modifications: not checked
B42: CXCR4 325-342 (peptide)
peptide: SLKILSKGKRGGHSSVST
modifications: not checked
B43: CCR5 61-78 (peptide)
peptide: LKSMTDIYLLNLAISDLF
modifications: not checked
B44: CXCR4 269-286 (peptide)
peptide: IIKQGCEFENTVHKWISI
modifications: not checked
B45: STRL33 21-38 (peptide)
peptide: EEHQAFLQFSKVFLPCMY
modifications: not checked
B46: CXCR4 185-202 (peptide)
peptide: ICDRFYPNDLWVVVFQFQ
modifications: not checked
B47: CXCR4 337-352 (peptide)
peptide: HSSVSTESESSSFHSS
modifications: not checked
B48: STRL33 45-62 (peptide)
peptide: GLVGNSLVLVISIFYHKL
modifications: not checked
B49: CXCR4 225-242 (peptide)
peptide: KLSHSKGHQKRKALKTTV
modifications: not checked
B50: CXCR4 177-194 (peptide)
peptide: VSEADDRYICDRFYPNDL
modifications: not checked
B51: STRL33 17-34 (peptide)
peptide: DSSQEEHQAFLQFSKVFL
modifications: not checked
B52: CXCR4 253-270 (peptide)
peptide: LPYYIGISIDSFILLEII
modifications: not checked
B53: CXCR4 201-218 (peptide)
peptide: FQHIMVGLILPGIVILSC
modifications: not checked
B54: CCR5 65-82 (peptide)
peptide: TDIYLLNLAISDLFFLLT
modifications: not checked
B55: CXCR4 209-226 (peptide)
peptide: ILPGIVILSCYCIIISKL
modifications: not checked
B56: CXCR4 169-186 (peptide)
peptide: IPDFIFANVSEADDRYIC
modifications: not checked
B57: CXCR4 193-210 (peptide)
peptide: DLWVVVFQFQHIMVGLIL
modifications: not checked
B58: CXCR4 205-222 (peptide)
peptide: MVGLILPGIVILSCYCII
modifications: not checked
B59: CXCR4 229-246 (peptide)
peptide: SKGHQKRKALKTTVILIL
modifications: not checked
B60: CXCR4 309-326 (peptide)
peptide: FKTSAQHALTSVSRGSSL
modifications: not checked
B61: CCR5 53-70 (peptide)
peptide: LILINCKRLKSMTDIYLL
modifications: not checked
B62: CXCR4 293-310 (peptide)
peptide: FHCCLNPILYAFLGAKFK
modifications: not checked
B63: CXCR4 197-214 (peptide)
peptide: VVFQFQHIMVGLILPGIV
modifications: not checked
B64: CXCR4 165-182 (peptide)
peptide: LLLTIPDFIFANVSEADD
modifications: not checked
B65: CXCR4 237-254 (peptide)
peptide: ALKTTVILILAFFACWLP
modifications: not checked

Target: HIV-1LAI envelope gp120 labeled with radioactive iodine (HIV-1 LAI), P03377
Assay: 125I-gp120, peptide array

Compared with B1, B2 is higher in counts minus background (counts per 20 min): 84 for the first, 264 for the second.

Going from B4 to B5, the counts minus background (counts per 20 min) falls from 323 to 147.

Compared with B6, B7 is lower in counts minus background (counts per 20 min): 167 for the first, 125 for the second.

First: B8
Second: B9
The counts minus background (counts per 20 min) of the first is higher: 127 for the first, 41 for the second.

Compared with B11, B13 is lower in counts minus background (counts per 20 min): 267 for the first, 182 for the second.

First: B14
Second: B15
The counts minus background (counts per 20 min) of the first is higher: 183 for the first, 144 for the second.

First: B16
Second: B17
The counts minus background (counts per 20 min) of the first is lower: 156 for the first, 185 for the second.

Compared with B19, B20 is lower in counts minus background (counts per 20 min): 734 for the first, 274 for the second.

Compared with B21, B22 is higher in counts minus background (counts per 20 min): 124 for the first, 315 for the second.

Going from B24 to B26, the counts minus background (counts per 20 min) falls from 202 to 89.

Going from B27 to B28, the counts minus background (counts per 20 min) rises from 147 to 416.

First: B29
Second: B30
The counts minus background (counts per 20 min) of the first is lower: 25 for the first, 3470 for the second.

Compared with B31, B32 is lower in counts minus background (counts per 20 min): 188 for the first, 181 for the second.

Compared with B33, B34 is higher in counts minus background (counts per 20 min): 117 for the first, 169 for the second.

Compared with B35, B36 is higher in counts minus background (counts per 20 min): 157 for the first, 277 for the second.

Compared with B37, B38 is lower in counts minus background (counts per 20 min): 200 for the first, 184 for the second.

First: B39
Second: B40
The counts minus background (counts per 20 min) of the first is lower: 259 for the first, 283 for the second.

Going from B41 to B42, the counts minus background (counts per 20 min) rises from 163 to 285.

Going from B43 to B44, the counts minus background (counts per 20 min) falls from 210 to 106.

Going from B46 to B47, the counts minus background (counts per 20 min) falls from 306 to 103.

Going from B49 to B50, the counts minus background (counts per 20 min) rises from 130 to 157.

First: B52
Second: B53
The counts minus background (counts per 20 min) of the first is higher: 439 for the first, 170 for the second.

Compared with B54, B55 is higher in counts minus background (counts per 20 min): 38 for the first, 192 for the second.

Going from B56 to B57, the counts minus background (counts per 20 min) falls from 438 to 422.

Compared with B58, B59 is lower in counts minus background (counts per 20 min): 167 for the first, 140 for the second.

Compared with B60, B61 is lower in counts minus background (counts per 20 min): 173 for the first, 2 for the second.

Going from B62 to B63, the counts minus background (counts per 20 min) rises from 123 to 589.

Compared with B64, B65 is lower in counts minus background (counts per 20 min): 1010 for the first, 261 for the second.

For B3, the counts minus background (counts per 20 min) was 2690 and 2760.
In the case of B10, the counts minus background (counts per 20 min) is reported as 8580 and 8910.
With B12 the counts minus background (counts per 20 min) was 1180 and 1320.
With B18 the counts minus background (counts per 20 min) was 3360 and 3690.
B23 was tested, and the counts minus background (counts per 20 min) was 168 and 236.
With B25 the counts minus background (counts per 20 min) was 1420 and 1360.
For B45, the counts minus background (counts per 20 min) was 2320 and 1820.
B48 was tested, and the counts minus background (counts per 20 min) was 164 and 95.5.
With B51 the counts minus background (counts per 20 min) was 870 and 2150.
